Source: article PMC9087215

Legend:
[1] = molecular target: Klebsiella pneumoniae PriA helicase (Klebsiella pneumoniae subsp. pneumoniae MGH 78578) (UniProt A6TGC5)
PaSSB(W54A) = PaSSB(W54A) (Pseudomonas aeruginosa, UniProt P40947 1-165, W54A); experiment: EMSA
PaSSB(F60A) = PaSSB(F60A) (Pseudomonas aeruginosa, UniProt P40947 1-165, F60A); experiment: EMSA
PaSSB(W88A) = PaSSB(W88A) (Pseudomonas aeruginosa, UniProt P40947 1-165, W88A); experiment: EMSA
PaSSB(W40A) = PaSSB(W40A) (Pseudomonas aeruginosa, UniProt P40947 1-165, W40A); experiment: EMSA
PaSSB = PaSSB (Pseudomonas aeruginosa, UniProt P40947 1-165); experiment: EMSA

Row | Molecule | ATPase activity of KpPriA with 10 μM KpSSBn-StSSBc, fold stimulation [1] [fold] | apparent K (half saturation) (PaSSB(W54A)) [nM] | apparent K (half saturation) (PaSSB(F60A)) [nM] | apparent K (half saturation) (PaSSB(W88A)) [nM] | apparent K (half saturation) (PaSSB(W40A)) [nM] | apparent K (half saturation) (PaSSB) [nM]
1 | KpSSBn-StSSBc chimeric protein (from UniProt P0A2F6 92-176) | 14 |  |  |  |  | 
2 | TTTTTTTTTTTTTTTTTTTTTTTTTTTTTTTTTTTTTTTTTTTTTTTTTT (ssDNA) [dT50] |  | 522 ± 26 | 569 ± 24 | 1230 ± 61 | 434 ± 19 | 355 ± 21
